Patent US20230002480A1

Columns and labels:
Test in all cases: cell-based or functional assay
[1] = target: HIV-1 Env of pseudovirus 1056_10_TA11_1826 (HIV-1)
[2] = target: HIV-1 Env of pseudovirus 1394C9G1(Rev-) (HIV-1)
[3] = target: HIV-1 Env of pseudovirus 191084 B7-19 (HIV-1)
[4] = target: HIV-1 Env of pseudovirus 191955_A11 (HIV-1)
[5] = target: HIV-1 Env of pseudovirus 249M B10 (HIV-1)
[6] = target: HIV-1 Env of pseudovirus 263-8 (HIV-1)
[7] = target: HIV-1 Env of pseudovirus 6240_08_TA5_4622 (HIV-1)
[8] = target: HIV-1 Env of pseudovirus 6535.3 (HIV-1)
[9] = target: HIV-1 Env of pseudovirus 9004SS_A3_4 (HIV-1)
[10] = target: HIV-1 Env of pseudovirus 928-28 (HIV-1)
[11] = target: HIV-1 Env of pseudovirus BJOX009000.02.4 (HIV-1)
[12] = target: HIV-1 Env of pseudovirus BJOX015000.11.5 (HIV-1)
[13] = target: HIV-1 Env of pseudovirus CAP45.2.00.G3 (HIV-1)
[14] = target: HIV-1 Env of pseudovirus CNE17 (HIV-1)
[15] = target: HIV-1 Env of pseudovirus CNE53 (HIV-1)
[16] = target: HIV-1 Env of pseudovirus Ce2060_G9 (HIV-1)
[17] = target: HIV-1 Env of pseudovirus Du156.12 (HIV-1)
[18] = target: HIV-1 Env of pseudovirus Du422.1 (HIV-1)
[19] = target: HIV-1 Env of pseudovirus HIV-0013095-2.11 (HIV-1)
[20] = target: HIV-1 Env of pseudovirus HIV-001428-2.42 (HIV-1)
[21] = target: HIV-1 Env of pseudovirus PVO.4 (HIV-1)
[22] = target: HIV-1 Env of pseudovirus Q23.17 (HIV-1)
[23] = target: HIV-1 Env of pseudovirus Q461.e2 (HIV-1)
[24] = target: HIV-1 Env of pseudovirus Q769.d22 (HIV-1)
[25] = target: HIV-1 Env of pseudovirus Q842.d12 (HIV-1)
[26] = target: HIV-1 Env of pseudovirus R2184.c04 (HIV-1)
[27] = target: HIV-1 Env of pseudovirus T250-4 (HIV-1)
[28] = target: HIV-1 Env of pseudovirus T257-31 (HIV-1)
[29] = target: HIV-1 Env of pseudovirus T278-50 (HIV-1)
[30] = target: HIV-1 Env of pseudovirus TRJO4551.58 (HIV-1)
[31] = target: HIV-1 Env of pseudovirus X1193_c1 (HIV-1)
[32] = target: HIV-1 Env of pseudovirus ZM247v1(Rev-) (HIV-1)

N49P7 (antibody) showed a neutralization IC50 [1] of 0.141 µg/mL, a neutralization IC80 [1] of 0.468 µg/mL and a neutralization MPI [1] of 100. For the same substance, the neutralization IC50 [2] was 3.84 µg/mL, the neutralization IC80 [2] was 21.1 µg/mL and the neutralization MPI [2] was 94. It also gave a neutralization IC50 [3] of 0.047 µg/mL, a neutralization IC80 [3] of 0.142 µg/mL and a neutralization MPI [3] of 100. It also gave a neutralization IC50 [4] of 1.81 µg/mL, a neutralization IC80 [4] of 8.87 µg/mL and a neutralization MPI [4] of 99. It also gave a neutralization IC50 [5] of 0.081 µg/mL, a neutralization IC80 [5] of 0.377 µg/mL and a neutralization MPI [5] of 100. For the same substance, the neutralization IC50 [6] was 0.056 µg/mL, the neutralization IC80 [6] was 0.201 µg/mL and the neutralization MPI [6] was 100. It also gave a neutralization IC50 [7] of 0.457 µg/mL, a neutralization IC80 [7] of 1.73 µg/mL and a neutralization MPI [7] of 100. The neutralization IC50 [8] was 0.186 µg/mL, the neutralization IC80 [8] was 0.598 µg/mL and the neutralization MPI [8] was 100. The neutralization IC50 [9] was 0.125 µg/mL, the neutralization IC80 [9] was 0.39 µg/mL and the neutralization MPI [9] was 100. The neutralization IC50 [10] was 0.167 µg/mL, the neutralization IC80 [10] was 0.579 µg/mL and the neutralization MPI [10] was 100. The neutralization IC50 [11] was 0.113 µg/mL, the neutralization IC80 [11] was 0.506 µg/mL and the neutralization MPI [11] was 100. The neutralization IC50 [12] was 0.036 µg/mL, the neutralization IC80 [12] was 0.157 µg/mL and the neutralization MPI [12] was 100. It also gave a neutralization IC50 [13] of 0.06 µg/mL, a neutralization IC80 [13] of 0.29 µg/mL and a neutralization MPI [13] of 100. It also gave a neutralization IC50 [14] of 0.126 µg/mL, a neutralization IC80 [14] of 0.46 µg/mL and a neutralization MPI [14] of 100. It also gave a neutralization IC50 [15] of 0.035 µg/mL, a neutralization IC80 [15] of 0.124 µg/mL and a neutralization MPI [15] of 100. It also gave a neutralization IC50 [16] of 0.661 µg/mL, a neutralization IC80 [16] of 2.55 µg/mL and a neutralization MPI [16] of 100. For the same substance, the neutralization IC50 [17] was 0.032 µg/mL, the neutralization IC80 [17] was 0.086 µg/mL and the neutralization MPI [17] was 100. The neutralization IC50 [18] was 4.5 µg/mL, the neutralization IC80 [18] was 19.5 µg/mL and the neutralization MPI [18] was 93. It also gave a neutralization IC50 [19] of 0.073 µg/mL, a neutralization IC80 [19] of 0.253 µg/mL and a neutralization MPI [19] of 100. The neutralization IC50 [20] was 0.006 µg/mL, the neutralization IC80 [20] was 0.02 µg/mL and the neutralization MPI [20] was 100. It also gave a neutralization IC50 [21] of 0.107 µg/mL, a neutralization IC80 [21] of 0.365 µg/mL and a neutralization MPI [21] of 100. It also gave a neutralization IC50 [22] of 0.052 µg/mL, a neutralization IC80 [22] of 0.21 µg/mL and a neutralization MPI [22] of 100. The neutralization IC50 [23] was 0.261 µg/mL, the neutralization IC80 [23] was 0.922 µg/mL and the neutralization MPI [23] was 100. The neutralization IC50 [24] was 0.025 µg/mL, the neutralization IC80 [24] was 0.111 µg/mL and the neutralization MPI [24] was 100. For the same substance, the neutralization IC50 [25] was 0.021 µg/mL, the neutralization IC80 [25] was 0.06 µg/mL and the neutralization MPI [25] was 100. It also gave a neutralization IC50 [26] of 0.011 µg/mL, a neutralization IC80 [26] of 0.031 µg/mL and a neutralization MPI [26] of 100. The neutralization IC50 [27] was 2.07 µg/mL, the neutralization IC80 [27] was 21.4 µg/mL and the neutralization MPI [27] was 91. The neutralization IC50 [28] was 0.158 µg/mL, the neutralization IC80 [28] was 0.619 µg/mL and the neutralization MPI [28] was 100. For the same substance, the neutralization IC50 [29] was 22.3 µg/mL, the neutralization IC80 [29] was > 50 µg/mL and the neutralization MPI [29] was 75. For the same substance, the neutralization IC50 [30] was 0.104 µg/mL, the neutralization IC80 [30] was 0.351 µg/mL and the neutralization MPI [30] was 100. For the same substance, the neutralization IC50 [31] was 0.016 µg/mL, the neutralization IC80 [31] was 0.06 µg/mL and the neutralization MPI [31] was 100. It also gave a neutralization IC50 [32] of 0.062 µg/mL, a neutralization IC80 [32] of 0.214 µg/mL and a neutralization MPI [32] of 100.
